The source of these data is patent publication US20110152166A1, “METHOD OF MODULATION OF PROTEIN PHOSPHORYLATION-DEPENDENT CONFORMATIONAL TRANSITIONS WITH LOW MOLECULAR WEIGHT COMPOUNDS” (priority 2006, published 2011).

What all share (assay): PDK1 activity assay with T308tide
Common to all, as to format: biochemical

One experiment deals with T1, GST-PDK1 wt (Homo sapiens, UniProt O15530).
T1 construct: different protein constructs, comprising the full length protein or the catalytic domain alone; made in house; host or cells: HEK293 cells (pEBG-2T-PDK1)
T1 sequence (O15530 1-556): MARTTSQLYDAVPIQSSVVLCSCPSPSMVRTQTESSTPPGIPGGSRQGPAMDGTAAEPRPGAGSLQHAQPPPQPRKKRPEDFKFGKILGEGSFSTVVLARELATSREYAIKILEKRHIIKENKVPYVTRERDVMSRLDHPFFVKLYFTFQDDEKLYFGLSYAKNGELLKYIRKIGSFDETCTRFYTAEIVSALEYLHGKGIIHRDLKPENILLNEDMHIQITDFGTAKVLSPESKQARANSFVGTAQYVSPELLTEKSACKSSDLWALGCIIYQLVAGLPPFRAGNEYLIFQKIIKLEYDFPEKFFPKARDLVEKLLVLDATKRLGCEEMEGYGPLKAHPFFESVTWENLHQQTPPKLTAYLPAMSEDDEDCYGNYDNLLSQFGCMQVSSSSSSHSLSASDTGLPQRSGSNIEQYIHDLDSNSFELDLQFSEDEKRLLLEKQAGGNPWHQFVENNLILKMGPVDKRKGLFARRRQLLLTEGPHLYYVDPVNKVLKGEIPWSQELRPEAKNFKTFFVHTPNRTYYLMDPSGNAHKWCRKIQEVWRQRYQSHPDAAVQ
The procedure: (§1) Protein kinase activity tests were performed essentially as previously described (Balendran et al., 2000; Biondi et al., 2000; Biondi et al., 2001). Substrates used were either MBP (for PKCζ or polypeptides (Crosstide for PKB, S6K, SGK and PRK2; T308tide for PDK1, and Kemptide for PKA). PKA (Sigma) was measured in the presence of 100 μM cAMP. Alternatively, assays were performed in a 96 well format, aliquots spotted on p81 phosphocellulose papers (Whatmann), washed in 0.01% phosphoric acid, dried, and then exposed and analysed using Phospholmager technology (Storm, Molecular Dynamics). Activity measurements were performed in duplicates with less than 10% difference between duplicate pairs. Experiments were repeated at least twice, although most of the experiments were repeated multiple times, with similar results.
(§2) PDK1 activity assay was performed in a 20 μl mix containing 50 mM Tris-HCl pH 7.5, 0.05 mg/ml BSA, 0.1% β-mercaptoethanol, 10 mM MgCl2, 100 μM [γ^32P]ATP (5-50 cpm/pmol), 0.003% Brij, 150 ng PDK1, and T308tide (from 0.05 to 1 mM). PDK1 specific activity was approximately 5 U/mg (when measured at 1 mM T308tide). The effect of small compounds on PDK1 was repeated with proteins from different purification batches and with different protein constructs, comprising the full length protein or the catalytic domain alone, with similar results. […] This variability may be due to the PIFtide/compound-stimulated autophosphorylation of the activation loop in certain preparations having less than a 1:1 molar phosphorylation stoichiometry at this site.
(§3) PDK1 activity was measured at room temperature using a polypeptide substrate derived from the activation loop phosphorylation site of PKB, T308tide (0.1 mM). […] GST-PDK1 wt was purified in numerous occasions and the maximal activation level of different batches varied between 3 and 8 fold activation with PIFtide or compound 1. Variations in the basal activity and fold activation were also observed in mutants. Therefore, comparisons in the maximal level of activation between mutants should be performed with care. The data shown are from an experiment where PIFtide concentrations were tested between 50 nM and 20 µM and compound 1 concentrations were between 5 μM and 200 μM, in triplicate. AC50 and max. activity were estimated by fitting the data to a hyperbola using Kaleidagraph software. One Unit of PDK1 activity was defined as the amount required to catalyse the phosphorylation of 1 nmol of the T308tide in 1 min.

In the next experiment the target is T2, GST-PDK1 [Gln150Ala] (Homo sapiens, UniProt O15530, Q150A).
T2 construct: different protein constructs, comprising the full length protein or the catalytic domain alone; made in house; host or cells: HEK293 cells (pEBG-2T-PDK1 mutant)
T2 sequence (O15530 1-556 Q150A): T1 sequence (O15530 1-556) with Q150A
To be noted: PDK1[Gln150Ala]; 20 μM. As for the experimental part: as §1, §2, §3

In the next experiment the target is T3, GST-PDK1 [Ile119Ala] (Homo sapiens, UniProt O15530, I119A).
T3 construct: different protein constructs, comprising the full length protein or the catalytic domain alone; made in house; host or cells: HEK293 cells (pEBG-2T-PDK1 mutant)
T3 sequence (O15530 1-556 I119A): T1 sequence (O15530 1-556) with I119A
The settings on record: Ile119 mutant; P-HM-RSK 20 μM. As for the experimental part: as §1, §2, §3

The target of another experiment is T4, GST-PDK1 [Thr148Val] (Homo sapiens, UniProt O15530, T148V).
T4 construct: different protein constructs, comprising the full length protein or the catalytic domain alone; made in house; host or cells: HEK293 cells (pEBG-2T-PDK1 mutant)
T4 sequence (O15530 1-556 T148V): T1 sequence (O15530 1-556) with T148V
The settings on record: PDK1[Thr148Val]; 20 μM. As for the experimental part:
as §1, §2, §3

Positions count from the first letter of the chain named. Square brackets hold non-standard residues; d marks the D form. Ends that are not written are not given here. pS = N[C@@H](COP(=O)(O)O)C(=O)O

Turning to “GFRDFDY [polypeptide comprising the complete hydrophobic motif present in PIFtide, reference compound]”, in the experiment with GST-PDK1 wt (concentrations up to 500 µM, data not shown), the “activation of PDK1 (in words)” value is reported as “did not activate PDK1”.

Consider “P-HM-PKB: phosphorylated HM polypeptide of PKB: KGAGGGGFPQFS(P)YSA (KGAGGGGFPQF[pS]YSA) [reference compound]”, for which the “activation of PDK1 mutant (in words)” value with GST-PDK1 [Gln150Ala], with GST-PDK1 [Ile119Ala] and with GST-PDK1 [Thr148Val] was “completely abolished” throughout. In the experiment with GST-PDK1 wt (PDK1 wild type), the “activation of PDK1 (in words)” value is “activated”.
